Results reported in publication PMC7749165, “The δ subunit and NTPase HelD institute a two-pronged mechanism for RNA polymerase recycling” (Nature Communications, 2020).

T1: HelD (recombinant B. subtilis NTPase HelD) (Bacillus subtilis (strain 168), UniProt O32215)
T1 chain: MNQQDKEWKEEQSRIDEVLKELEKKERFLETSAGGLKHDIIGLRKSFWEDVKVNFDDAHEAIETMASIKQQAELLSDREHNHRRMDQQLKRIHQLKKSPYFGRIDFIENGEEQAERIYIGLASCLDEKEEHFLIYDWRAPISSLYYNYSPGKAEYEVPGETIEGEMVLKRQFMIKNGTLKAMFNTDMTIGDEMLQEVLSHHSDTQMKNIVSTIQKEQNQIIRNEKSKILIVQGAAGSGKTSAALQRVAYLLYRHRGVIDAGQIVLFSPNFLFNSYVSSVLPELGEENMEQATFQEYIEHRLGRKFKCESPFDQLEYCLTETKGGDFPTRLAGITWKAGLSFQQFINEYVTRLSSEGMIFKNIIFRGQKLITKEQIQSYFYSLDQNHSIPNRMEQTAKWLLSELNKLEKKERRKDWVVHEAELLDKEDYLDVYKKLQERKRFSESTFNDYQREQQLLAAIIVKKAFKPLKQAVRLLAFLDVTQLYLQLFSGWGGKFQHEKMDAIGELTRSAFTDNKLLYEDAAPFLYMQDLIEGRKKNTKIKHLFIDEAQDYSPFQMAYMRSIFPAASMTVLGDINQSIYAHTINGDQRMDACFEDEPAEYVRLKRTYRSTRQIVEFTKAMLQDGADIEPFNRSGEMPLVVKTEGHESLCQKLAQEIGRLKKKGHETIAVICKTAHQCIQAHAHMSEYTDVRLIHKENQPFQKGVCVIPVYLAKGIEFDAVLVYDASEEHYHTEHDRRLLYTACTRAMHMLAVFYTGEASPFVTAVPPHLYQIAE

B1: RNAP δ subunit, endogenous (natural protein, B. subtilis (endogenous), UniProt P12464 1-173, looked up)
chain: MGIKQYSQEELKEMALVEIAHELFEEHKKPVPFQELLNEIASLLGVKKEELGDRIAQFYTDLNIDGRFLALSDQTWGLRSWYPYDQLDEETQPTVKAKKKKAKKAVEEDLDLDEFEEIDEDDLDLDEVEEELDLEADDFDEEDLDEDDDDLEIEEDIIDEDDEDYDDEEEEIK
notes: RNAP δ subunit, B. subtilis; NTD residues 1-90, CTR residues 91-173; source: endogenous, B. subtilis MH5636 or LK782; in lysate and purified as part of RNAP
B2: δ^NTD (N-terminal domain of the RNAP δ subunit) (protein)
chain: MGIKQYSQEELKEMALVEIAHELFEEHKKPVPFQELLNEIASLLGVKKEELGDRIAQFYTDLNIDGRFLALSDQTWGLRSWYPYDQLDEE
B3: RNAP α subunit (natural protein, B. subtilis (endogenous), UniProt P20429 1-314, looked up)
chain: MIEIEKPKIETVEISDDAKFGKFVVEPLERGYGTTLGNSLRRILLSSLPGAAVTSIQIDGVLHEFSTIEGVVEDVTTIILHIKKLALKIYSDEEKTLEIDVQGEGTVTAADITHDSDVEILNPDLHIATLGENASFRVRLTAQRGRGYTPADANKRDDQPIGVIPIDSIYTPVSRVSYQVENTRVGQVANYDKLTLDVWTDGSTGPKEAIALGSKILTEHLNIFVGLTDEAQHAEIMVEKEEDQKEKVLEMTIEELDLSVRSYNCLKRAGINTVQELANKTEEDMMKVRNLGRKSLEEVKAKLEELGLGLRKDD
notes: RNAP α subunit, B. subtilis; only the N-terminal domains have density in the structures; also called α1; α2; source: endogenous, B. subtilis; in lysate and purified as part of RNAP
B4: RNAP β subunit (natural protein, B. subtilis (endogenous), UniProt P37870 1-1193, looked up)
chain: MTGQLVQYGRHRQRRSYARISEVLELPNLIEIQTSSYQWFLDEGLREMFQDISPIEDFTGNLSLEFIDYSLGEPKYPVEESKERDVTYSAPLRVKVRLINKETGEVKDQDVFMGDFPIMTDTGTFIINGAERVIVSQLVRSPSVYFSGKVDKNGKKGFTATVIPNRGAWLEYETDAKDVVYVRIDRTRKLPVTVLLRALGFGSDQEILDLIGENEYLRNTLDKDNTENSDKALLEIYERLRPGEPPTVENAKSLLDSRFFDPKRYDLANVGRYKINKKLHIKNRLFNQRLAETLVDPETGEILAEKGQILDRRTLDKVLPYLENGIGFRKLYPNGGVVEDEVTLQSIKIFAPTDQEGEQVINVIGNAYIEEEIKNITPADIISSISYFFNLLHGVGDTDDIDHLGNRRLRSVGELLQNQFRIGLSRMERVVRERMSIQDTNTITPQQLINIRPVIASIKEFFGSSQLSQFMDQTNPLAELTHKRRLSALGPGGLTRERAGMEVRDVHYSHYGRMCPIETPEGPNIGLINSLSSYAKVNRFGFIETPYRRVDPETGKVTGRIDYLTADEEDNYVVAQANARLDDEGAFIDDSIVARFRGENTVVSRNRVDYMDVSPKQVVSAATACIPFLENDDSNRALMGANMQRQAVPLMQPEAPFVGTGMEYVSGKDSGAAVICKHPGIVERVEAKNVWVRRYEEVDGQKVKGNLDKYSLLKFVRSNQGTCYNQRPIVSVGDEVVKGEILADGPSMELGELALGRNVMVGFMTWDGYNYEDAIIMSERLVKDDVYTSIHIEEYESEARDTKLGPEEITRDIPNVGEDALRNLDDRGIIRIGAEVKDGDLLVGKVTPKGVTELTAEERLLHAIFGEKAREVRDTSLRVPHGGGGIIHDVKVFNREDGDELPPGVNQLVRVYIVQKRKISEGDKMAGRHGNKGVISKILPEEDMPYLPDGTPIDIMLNPLGVPSRMNIGQVLELHMGMAARYLGIHIASPVFDGAREEDVWETLEEAGMSRDAKTVLYDGRTGEPFDNRVSVGIMYMIKLAHMVDDKLHARSTGPYSLVTQQPLGGKAQFGGQRFGEMEVWALEAYGAAYTLQEILTVKSDDVVGRVKTYEAIVKGDNVPEPGVPESFKVLIKELQSLGMDVKILSGDEEEIEMRDLEDEEDAKQADGLALSGDEEPEETASADVERDVVTKE
notes: RNAP β subunit, B. subtilis; source: endogenous, B. subtilis; in lysate and purified as part of RNAP

Assays:
[1] = target: T1, HelD (recombinant B. subtilis NTPase …); assay: analytical SEC with SDS-PAGE
[2] = target: T2, RNAP β′ subunit with chromosomally encoded C-terminal His10-tag (B. subtilis, UniProt P37871 1-1199); assay: SEC; HelD release assay: the same RNAP-HelD complex mixed with 5 mM Mg^2+-ATPγS, AMPPNP or ATP in buffer I; Superdex 200 Increase PC 3.2, 4 °C; fractions on SDS-PAGE; details: both partners purified
T2 construct: RNAP β′ subunit, B. subtilis; source: B. subtilis strains MH5636, LK782, LK1032; in lysate and purified as part of RNAP (Ni-NTA, heparin, SEC); not shown: His10, C-terminal, kept

[3] = target: T2, RNAP β′ subunit with chromosomally …; assay: co-purification; RNAP captured from lysates of stationary phase B. subtilis by the C-terminal His10-tag on β′ (Ni-NTA), then heparin column and SEC, 4 °C; content of the fractions told from gels (strains MH5636, LK782, LK1032); details: partners not purified

T2 sequence (P37871 whole entry): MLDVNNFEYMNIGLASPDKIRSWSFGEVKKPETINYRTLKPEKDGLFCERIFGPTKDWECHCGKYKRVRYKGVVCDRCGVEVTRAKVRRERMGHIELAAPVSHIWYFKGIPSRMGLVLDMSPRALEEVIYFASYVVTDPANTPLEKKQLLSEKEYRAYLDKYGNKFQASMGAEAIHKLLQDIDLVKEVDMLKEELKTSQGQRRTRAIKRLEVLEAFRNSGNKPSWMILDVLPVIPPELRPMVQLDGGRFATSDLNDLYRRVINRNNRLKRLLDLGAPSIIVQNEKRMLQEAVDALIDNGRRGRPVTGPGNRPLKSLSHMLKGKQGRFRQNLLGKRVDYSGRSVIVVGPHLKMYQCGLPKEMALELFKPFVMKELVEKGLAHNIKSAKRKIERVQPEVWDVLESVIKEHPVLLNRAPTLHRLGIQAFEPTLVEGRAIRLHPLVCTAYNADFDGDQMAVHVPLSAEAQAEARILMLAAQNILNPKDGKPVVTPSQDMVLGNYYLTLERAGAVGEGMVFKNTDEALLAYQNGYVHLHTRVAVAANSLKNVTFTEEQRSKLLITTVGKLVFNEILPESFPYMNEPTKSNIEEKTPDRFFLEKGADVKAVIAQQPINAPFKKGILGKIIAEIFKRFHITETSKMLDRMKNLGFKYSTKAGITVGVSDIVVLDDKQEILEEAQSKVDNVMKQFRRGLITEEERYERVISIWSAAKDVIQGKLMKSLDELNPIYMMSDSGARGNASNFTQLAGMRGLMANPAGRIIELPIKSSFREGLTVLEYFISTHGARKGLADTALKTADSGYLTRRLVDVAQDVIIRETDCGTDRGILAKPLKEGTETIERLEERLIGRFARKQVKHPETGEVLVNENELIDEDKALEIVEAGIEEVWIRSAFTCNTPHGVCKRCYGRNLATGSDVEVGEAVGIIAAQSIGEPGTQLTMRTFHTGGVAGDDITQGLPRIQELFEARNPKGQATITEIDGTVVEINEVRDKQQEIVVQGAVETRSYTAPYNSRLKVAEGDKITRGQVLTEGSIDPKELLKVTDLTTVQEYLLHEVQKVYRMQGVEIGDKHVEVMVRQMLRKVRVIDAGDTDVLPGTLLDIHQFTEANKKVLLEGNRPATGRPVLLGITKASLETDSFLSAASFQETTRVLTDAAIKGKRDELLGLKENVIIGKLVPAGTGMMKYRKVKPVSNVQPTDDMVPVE

Row | Binder | binding result [1] | binding result [2] | binding result [3]
1 | B1 | binds | binds | 
2 | B2 | no binding |  | 
3 | B3 |  |  | binds
4 | B4 |  |  | binds
